Data: PMC3594540 (Nature structural & molecular biology, 2013)
Changes are numbered by the printed parent chain.

Key:
Experiment in all cases: cell-based or functional assay
[1] = target: T1, human PLCβ3 (residues 10–1234) (human, UniProt Q01970 10-1234)
T1 sequence: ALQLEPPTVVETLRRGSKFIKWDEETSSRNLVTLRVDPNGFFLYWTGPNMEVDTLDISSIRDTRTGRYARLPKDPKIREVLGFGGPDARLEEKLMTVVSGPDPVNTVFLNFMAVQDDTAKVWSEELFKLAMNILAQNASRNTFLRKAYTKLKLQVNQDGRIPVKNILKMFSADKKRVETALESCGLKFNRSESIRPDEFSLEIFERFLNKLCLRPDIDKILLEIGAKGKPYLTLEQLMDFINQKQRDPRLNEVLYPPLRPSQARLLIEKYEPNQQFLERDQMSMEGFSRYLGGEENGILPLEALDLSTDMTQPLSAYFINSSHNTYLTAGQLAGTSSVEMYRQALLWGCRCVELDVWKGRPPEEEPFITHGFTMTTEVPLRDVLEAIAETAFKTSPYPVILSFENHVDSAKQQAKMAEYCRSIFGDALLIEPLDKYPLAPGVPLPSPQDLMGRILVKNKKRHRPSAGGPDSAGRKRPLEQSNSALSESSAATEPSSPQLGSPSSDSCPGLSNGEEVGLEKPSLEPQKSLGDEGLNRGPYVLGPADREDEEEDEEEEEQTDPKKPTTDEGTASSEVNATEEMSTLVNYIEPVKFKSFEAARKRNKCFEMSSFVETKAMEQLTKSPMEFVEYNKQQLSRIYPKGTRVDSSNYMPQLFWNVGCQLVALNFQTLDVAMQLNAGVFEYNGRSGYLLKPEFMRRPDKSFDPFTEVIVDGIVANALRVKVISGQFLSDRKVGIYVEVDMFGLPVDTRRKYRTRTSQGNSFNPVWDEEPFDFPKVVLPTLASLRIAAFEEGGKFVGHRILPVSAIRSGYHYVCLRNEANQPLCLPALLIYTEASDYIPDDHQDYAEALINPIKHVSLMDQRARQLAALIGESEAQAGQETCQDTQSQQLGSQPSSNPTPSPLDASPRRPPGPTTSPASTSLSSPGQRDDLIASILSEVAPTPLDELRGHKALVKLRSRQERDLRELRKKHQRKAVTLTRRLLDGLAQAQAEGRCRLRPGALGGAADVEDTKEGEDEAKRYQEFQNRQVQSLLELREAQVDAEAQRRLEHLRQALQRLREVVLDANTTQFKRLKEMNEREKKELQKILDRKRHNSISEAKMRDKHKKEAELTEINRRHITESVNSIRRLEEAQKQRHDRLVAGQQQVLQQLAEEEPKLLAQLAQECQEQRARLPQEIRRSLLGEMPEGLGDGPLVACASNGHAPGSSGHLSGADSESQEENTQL

PLCβ3 L876A = PLCβ3 L876A (human, UniProt Q01970 10-1234, L876A)
[2] = target: T2, PLCβ3 I1129E V1133E I1136E triple mutant (human, UniProt Q01970)
T2 chain: T1 sequence with I1120E, V1124E, I1127E

B1: murine Gαq (residues 7–359), biotinylated for bead binding (natural protein)
chain: MACCLSEEAKEARRINDEIERQLRRDKRDARRELKLLLLGTGESGKSTFIKQMRIIHGSGYSDEDKRGFTKLVYQNIFTAMQAMIRAMDTLKIPYKYEHNKAHAQLVREVDVEKVSAFENPYVDAIKSLWNDPGIQECYDRRREYQLSDSTKYYLNDLDRVADPSYLPTQQDVLRVRVPTTGIIEYPFDLQSVIFRMVDVGGQRSERRKWIHCFENVTSIMFLVALSEYDQVLVESDNENRMEESKALFRTIITYPWFQNSSVILFLNKKDLLEEKIMYSHLVDYFPEYDGPQRDAQAAREFILKMFVDLNPDSDKIIYSHFTCATDTENIRFVFAAVKDTILQLNLKEYNLV
In the case of B1, the “EC50 of Gαq-stimulated PIP2 hydrolysis ([3H]-IP3 release from liposomes)” value (shortened to “EC50 of Gαq-stimulated PIP2 hydrolysis”) [1] is reported as 120 nM, the “Max specific activity of Gαq-stimulated PIP2 hydrolysis (liposomes)” value (“Max specific activity” below) [1] is reported as 2900 nmol IP3/min/nmol PLCβ3 and the “EC50 of Gαq-stimulated PIP2 hydrolysis” value (PLCβ3 L876A) is reported as 19 nM. The “Max specific activity” value (PLCβ3 L876A) was 6500 nmol IP3/min/nmol PLCβ3, the “EC50 of Gαq-stimulated PIP2 hydrolysis” value [2] was 280 nM and the “Max specific activity” value [2] was 1900 nmol IP3/min/nmol PLCβ3.
